The source of these data is the DeepSol protein solubility set.

The nature of this data set: soluble on expression in E. coli; label from the status in PepcDB or PDB records.
For “AAISLDEQWRMIKENQLMMIAHGIASPRLPEASNLWLISLKLWSCESEIIDEQTFRRSFSDPALSHALDQRVCHDFFQQAAKAVASKGLSIALPLSVAGLSSATLVNELLEQLENSPLPARLLHLIIPAEAIFDHAESVQKLRLAGCRIVFSQVGRDLQIFNSLKANMADYLLLDGELCANVQGNLMDEMLITIIQGHAQRLGMKTIAGPVVLPLVMDTLSGIGVDLIYGDVIANAQPLDLLVNRSYFAIN”, the “soluble on expression in E. coli” value is “not soluble”.

With “AAMKVYDVTAPIYEGMPVYKNKPEKQPKRTTITNGYVTESRIDMDVHTGTHIDAPLHMVEGGATFETIPLNDLVGPCKLFDLTHVNDRITKDDIAHLDIQEGDFVLFKTKNSFEDAFHFEFIFVAEDAARYLADKQIRGVGIDALGIERAQEGHPTHKTLFSAGVIIIEGLRLKDVPEGRYFMVAAPLKLVGTDAAPARVLLFDREP”, the “soluble on expression in E. coli” value was “soluble”. For “AARLPVAPRHLPTLEKFRAEQPTVQGTSTPTISANAALLIGSLLQSEKLPFEVMAARLSPERYALQQFHGSDLQQMLGRFAEPGHLPGKAETEQLIKGFARSLADQLEHFQLMHDATAEAFGPGGLRDRNTLAVSQAALGEYAGRASKSIEAGLNHSLAVLDERIAALDSQLEGATEDSRPVLLMDRQALETARAMLSDLHVDFCKSPEAKRLSAVAAHTQMDALIDKLNVDRSSVGGWKGIGPIVAAAVPQFMVSMLHLGYIRTATSDAMKDAVPEKSADASMKRALAVGLTAGVAHEGVTNLLKPMVQAGFQKAGLNERLNMVPLKGIDTDSVIPDPFELKNDNGALVRKTPEEAAEDKAFVASERAVLNQKKVQVSSTHPLGEMIPYGAFGGGQAVRQMLNDFNLLNGQTLSARAVTSGIAGAISATTQTIAQLNSTYVDPRGRKIPVFTPDRANADLGKDLAKGLDLREPAVRTAFYSKAVSGVQSAALNGALPSVAVQPQGASGTLSAGNIMRNMALAATGSVSYLSTLYANQSVTAEAKALKEAGMGGATPMVARTETALSNIRHPDRASLPHTFQPDTLGGVPRAVENAYHMARGALQLPTQVVVDTVRVVEDGVASGVSSLRDAHKPAET” the value was “not soluble”; for “ADILLLDNIDSFTWNLADQLRTNGHNVVIYRNHIPAQTLIDRLATMKNPVLMLSPGPGVPSEAGCMPELLTRLRGKLPIIGICLGHQAIVEAYGGYVGQAGEILHGKATSIEHDGQAMFAGLANPLPVARYHSLVGSNVPAGLTINAHFNGMVMAVRHDADRVCGFQFHPESILTTQGARLLEQTLAWAQQK”, “soluble”; for “ADLPGKGITVNPVQSTITEETFQTLLVSRALEKLGYTVNKPSEVDYNVGYTSLASGDATFTAVNWTPLHDNMYEAAGGDKKFYREGVFVNGAAQGYLIDKKTADQYKITNIAQLKDPKIAKLFDTNGDGKADLTGCNPGWGCEGAINHQLAAYELTNTVTHNQGNYAAMMADTISRYKEGKPVFYYTWTPYWVSNELKPGKDVVWLQVPFSALPGDKNADTKLPNGANYGFPVSTMHIVANKAWAEKNPAAAKLFAIMQLPVADINAQNAIMHDGKASEGDIQGHVDGWIKAHQQQFDGWVNEALAAQK”, “soluble”. For “ADVAIVGGGFVGLWTAITLKQLEPDARVLLLEQDVCGGGASGRNGGFVMSWWPKIGTLLGFCSEAQARFLGESAERAIQELGEFCARHDIDAHFQQKGWLWTATTAHHLDAWNDTLAACERLGVSPFERLDASEVARRTGSPVHLAGVFERSNATVQPALLVQGMRRVALALGVEIHERCGVSQIVPGQPAQLLSAGARVQAKAVVLATNAWSAALPRLSRLIVPVNSSIAVTEAIPQRLERIGWTGGEAITDSQLMVDYYRTTRDGRIAFGKGTGALSYGSRIGRVFDVDRESLALTEADFRRTYPSLGDIPLVDGWSGPIDRTYDSLPVFGRLHENIHYGIGWSGNGVGPSRLGGRILASLALGRDDPWSR” the value was “not soluble”; for “AEAAPCETADGTYHIALPEAENPPVLIFLHGHGGEGAATLRNARLVAPLLARGWAVIAPDGQSRAPGRPRSWTFFPGWEGRDEPAFLAQVLGEASARFGLDADRAVLGGFSAGAFMVTYLACATPGAYRAYVPVSGGFWRPQPDRCAGPVHLFQTHGWADPVVPLEGRFLGGGRFQQGDIFAGLELWRQTNGCVEHKPDGFDQTGPFLRRRWQGCSGGSLEFALFPGGHTVPEGWADMMADWVEAL”, “not soluble”; for “AEAEFNNYCKIKCLKGGVHTACKYGSLKPNCGNKVVVSYGLTKQEKQDILKEHNDFRQKIARGLETRGNPGPQPPAKNMKNLVWNDELAYVAQVWANQCQYGHDTCRDVAKYQVGQNVALTGSTAAKYDDPVKLVKMWEDEVKDYNPKKKFSGNDFLKTGHYTQMVWANTKEVGCGSIKYIQEKWHKHYLVCNYGPSGNFKNEELYQTK”, “soluble”. For “AELRSREYAEILKQKQELSLVEAGEFNSLGKRNGRVYFVETFDTESGIMKNLFLREQDKNGGDNIIFAKEGNFSLNDNKRTLELRHGYRYSGTPGRADYNQVSFQKLNLIISTTPKLIDPVSHRRTIPTAQLIGSSNPQHQAELMWR” the value was “soluble”. For “AGALWEIEKELFTKLPAPSSAINSHLQPAKPKVPQKKPSKWDPPAEFKVDLSTAVSYNDIGDINWKNLQQFKGIERSEKGTEGLFFVETESGVFIVKRSTNIESETFCSLLCMRLGLHAPKVRVVSSNSEEGTNMLECLAAIDKSFRVITTLANQANILLMELVRGITLNKLTTTSAPEVLTKSTMQQLGSLMALDVIVNNSDRLPIAWTNEGNLDNIMLSERGATVVPIDSKIIPLDASHPHGERVRELLRTLIAHPGHESSQFHSIRDIITLYTGYDVGTEGSISMQEGFLATVRECASFDLDAFERELLSWQESLQKCHNLSISPQAIPFILRMLRIFH”, the “soluble on expression in E. coli” value is “soluble”. For “AGMDVRESISLQNQVSMNLAKHVITTVSQNSNVIFSPASINVVLSIIAAGSAGATKDQILSFLKFSSTDQLNSFSSEIVSAVLADGSANGGPKLSVANGAWIDKSLSFKPSFKQLLEDSYKAASNQADFQSKAVEVIAEVNSWAEKETNGLITEVLPEGSADSMTKLIFANALYFKGTWNEKFDESLTQEGEFHLLDGNKVTAPFMTSKKKQYVSAYDGFKVLGLPYLQGQDKRQFSMYFYLPDANNGLSDLLDKIVSTPGFLDNHIPRRQVKVREFKIPKFKFSFGFDASNVLKGLGLTSPFSGEEGLTEMVESPEMGKNLCVSNIFHKACIEVNEEGTEAAAASAGVIKLRGLLMEEDEIDFVADHPFLLVVTENITGVVLFIGQVVDPLH” the value was “soluble”. For “AHHHHHHASAKWVCKICGYIYDEDAGDPDNGISPGTKFEELPDDWVCPICGAPKSEFEKLEDGSGTREIIIDCYLHDMCEGLNIMTVRGSAYLLVGQNVYPLIEGIVPPTLHFYIKEGYLDIYGFWRVEGEEHAAHIRVAIDKVHVVGTSIIVEPHGALENFDASVVIKLDASEKDLEQLKKIINEEKFWTKEEHGEVISTYLEKHLREKRKKKE” the value was “soluble”; for “AHHHHHHASAKWVCKICGYIYDEDAGDPDNGISPGTKFEELPDDWVCPICGAPKSEFEKLEDGSQGYSRRGNMMIILKPLIEVDLPEDFVDIIKAKLKGQTVKSGEIITVDILGKPIEFKVLYAEPSPVKVTQKTQIKFAKGNVFEVSLDFKAKDCIITDAFIVLTGESEVLILNHNFEEIRRIEFENLKKIVVKGDLVVLIGEEKVKILKLQ”, “soluble”. For “AHHHHHHGSGKTGIEYFDNFILKDGFPDGSLILVAGEPGAGKTIFSATYLYNGAKKFGEKGVYISLAETKREFYEAMKQLGMDFEELEKKGLFRFIDLVTVSRGAIEKEIQFLMSEISSFQPKRVVIDSISVFAQILGLEKTRVFLHTMLGRFIKAYNATALLIAEKPMGSKTIGHGVEEFVVDGVIILKYKSLGEITRRVMEIPKMRRRSVERAEYEYVITKNGIEFLELPDLVRDKGEYTLEKITTGIEKLDKMLDGGYTRDQMF” the value was “soluble”; for “AHHHHHHGSGVEKVPKYDIPVKKVEYVFIELDKMKPHEQLVQRELEDFIESVTGSGIFWKPMLLAKIPGTDEYLIVDGHHRWAGLQKLGAKRAPSVILDYFDEGVKVYTWYPAFKGDVNKVIERLKAEGLEVIEDEKAEEKAEKGEIAFALIGEKSFAIPGGLEEQKKVSKVLDEMDQAKEIELVYYGLKEDAKADMEKGEIDYVFIRKAPTKEEVMELVKRGEVFSPKTTRHVLPFIPDKIDVKLEDLF”, “soluble”.
